For series [1], the system named is HCT116. Briefly: HCT116 cell viability, anticancer chemotherapeutic agent with GEN3033.
Series [2] relates to HCT116. Briefly: Cell lysis ability of PBMC against cancer cells (CFSE/7-AAD), MG731. Format: cell-based. As to conditions: cancer cell death caused by PBMC set to 100%. How it is done:
PBMCs (peripheral blood mononuclear cells) were collected from the human blood using Ficoll, and then red blood cells were removed through RBC lysis buffer, and the number of living cells was counted, and the cells were cultured for 24 hours in a round bottom 96 well plate containing lactic acid bacteria (6×10^5/50 ul/well) by adding PBMC 3 x 10^4 cells/50 μl to each well.
(§1) The colon cancer cell line HCT116 was mixed with 5 μM of CFSE (carboxyfluorescein succinimidyl ester) in RPMI medium without FBS, and reacted at 37° C. for 5 minutes, and then RPMI1640 medium containing FBS was added, and stored on ice for 10 minutes. After the supernatant was removed by centrifugation, the obtained cells were mixed with RPMI1640 containing 10% FBS, and then the number of cells was counted, and 3×10^4 cells/100 μl were added to each well of the above prepared 96 well plate.
Staining for CFSE and 7-AAD using FACSDiVa software (BD Biosciences) was measured to confirm the cell lysis ability of PBMC against cancer cell lines, and the results are shown in FIG. 9.

For series [3], the system named is HCT116. Briefly: Cell lysis ability of PBMC against cancer cells (CFSE/7-AAD), GEN3033. The class given is cell-based, human. The settings on record: cancer cell death caused by PBMC set to 100%. Here is the method: PBMCs (peripheral blood mononuclear cells) were collected from the human blood using Ficoll, and then red blood cells were removed through RBC lysis buffer, and the number of living cells was counted, and the cells were cultured for 24 hours in a round bottom 96 well plate containing lactic acid bacteria (3×10^5/50 ul/well) by adding PBMC 3 x 10^4 cells/50 μl to each well.
as §1
Staining for CFSE and 7-AAD using FACSDiVa software (BD Biosciences) was measured to confirm the cell lysis ability of PBMC against cancer cell lines, and the results are shown in FIG. 29.

For series [4], the system named is HCT116.
In the next series the test system is MC38 cancer cells. Briefly: MC38 tumor-induced model in C57BL/6 mice, MG731. The settings on record: administered in combination with MG731. The class given is in vivo, mouse. Here is the method:
Prior to constructing a tumor model, a sample of lactic acid bacteria was administered to mice for 2 weeks to increase intestinal establishment and immunity, and then 2×10^5 MC38 cancer cells were injected subcutaneously in the vicinity of the right hip of 8 C57BL/6 mice per group to construct a tumor-induced model. Simultaneously with injection of tumor cells, a sample of lactic acid bacteria was orally administered to the animal model for 3 weeks (from Monday to Saturday). The sample of lactic acid bacteria to be administered was diluted in 200 μL of PBS so as to be 1×10^9 of CFU per head and then administered orally.

Setting [5] is: HCT116, combination treatment with 0.5% GEN3033, compared to the agent alone.

Read-outs that look alike come from different tables or passages of the source.

`N.N.[Cl][Pt][Cl]` [Cisplatin, cisplatin]: in the series on HCT116 [1] (HCT116, 7 μM Cisplatin in combination with 0.5% GEN3033, compared to 7 μM Cisplatin alone), the cell viability entry was “remarkably reduced”.

On to Atezolizumab [anti-PD-L1], for which the “cancer cell death (cytotoxicity)” value was 133.6% in the series on HCT116 [2] (alone), 221.6% in the series with HCT116 [2] (in combination with MG731), 123.5% in the series on HCT116 [3] (alone) and 154.0% in the series with HCT116 [3] (in combination with GEN3033).

Regarding `O=P1(N(CCCl)CCCl)NCCCO1` (stereo not drawn) [cyclophosphamide], the cancer cell death result in the series on HCT116 [1] (setting [5]) is “remarkably high”.

Consider `O=c1[nH]cc(F)c(=O)[nH]1` [5-FU, fluorouracil], for which the cancer cell death entry in the series with HCT116 [1] (setting [5]) is given as “remarkably high”.

On to `CC(=O)O[C@H]1C(=O)[C@@]2(C)[C@H]([C@H](OC(=O)c3ccccc3)[C@]3(O)C[C@H](OC(=O)[C@H](O)[C@@H](NC(=O)c4ccccc4)c4ccccc4)C(C)=C1C3(C)C)[C@]1(OC(C)=O)CO[C@@H]1C[C@@H]2O` [paclitaxel], for which the cancer cell death result with HCT116 [1] (setting [5]) is listed as “remarkably high”.

Turning to `O=C1[O][Pt]2([NH][C@@H]3CCCC[C@H]3[NH]2)[O]C1=O` [oxaliplatin], the cancer cell death entry in the series on HCT116 [1] is “remarkably high”. Also, the cell viability in the series with HCT116 [4] was not below 90%. In addition, the tumor inhibitory effect result in the series on MC38 cancer cells was “more excellent”.

Regarding Ipilimumab [antiCTLA-4], the “cancer cell death (cytotoxicity)” value in the series on HCT116 [2] (alone) was 108%; in the series on HCT116 [2] (in combination with MG731) it was 214.4%; in the series with HCT116 [3] (alone), 116.0%; in the series on HCT116 [3] (in combination with GEN3033), 128.3%.

In general, cell viability refers to a read-out of living cells in per cent, often relative to untreated cells.

Source of the values: patent publication US12214004B2, “Strains having effects of preventing or treating cancers” (Genome And Company, priority 2018, dated 2025).
